Measured values from PMC2828873 (2009).

Molecular target: Stargazin-derived probe 12 (Rattus norvegicus, UniProt Q71RJ2, N-acetyl, X=Dab(4-DMAP), NRR added)
Experiment: fluorescence titration

B1: Shank3 PDZ (protein)
chain: DDKVAILQKRDHEGFGFVLRGAKAETPIEEFTPTPAFPALQYLESVDVEGVAWKAGLRTGDFLIEVNGVNVVKVGHKQVVGLIRQGGNRLVMKVVSVTRKP
B1 was tested, and the Kd was 10 µM.
